Where a chain is given by its changes, count along the chain named.
B1: NRP1-223 (antibody, IgG2, V domains shown)
VH: EVQLLESGGGLVQPGGSLRLSCAASGFTFKKYAMSWVRQAPGKGLEWVSTISGSGRSTYYADSVKGRFTISRDNSKNTLYLQMNSLRAEDTAVYYCARDLARGTMPRGVIIPHNWFDPWGQGTLVTVSS
VL: DIQMTQSPSSLSASVGDRVTITCRASQSVRNYLNWYQQKPGKAPKLLIYGASRLHSGVPSRFSGSGSGTDFTLTISSLQPEDFATYYCQQSYSGPYSFGGGTKVEIK
B2: NRP1-262 (antibody, IgG2, V domains shown)
VH: B1 VH
VL: DIQMTQSPSSLSASVGDRVTITCRTSQSINTYLNWYQQKPGKAPKLLIYAASGLHSGVPSRFSGSGSGTDFTLTISSLQPEDFATYYCQQAYGTPFTFGGGTKVEIK
B3: NRP1-217 (antibody, IgG2, V domains shown)
VH: EVQLLESGGGLVQPGGSLRLSCAASGFTFGRYAMSWVRQAPGKGLEWVSSISGSGGSTYYADSVKGRFTISRDNSKNTLYLQMNSLRAEDTAVYYCARQRIKPNTPRESFFRRAYSYYGMDVWGQGTLVTVSS
VL: B2 VL with S28R, N30S, Y32S, A50G, G53N, H55Q, V58A, A91S, G93F, F96I
B4: NRP1-280 (antibody, IgG2, V domains shown)
VH: EVQLLESGGGLVQPGGSLRLSCAASGFTFTTYGMSWVRQAPGKGLEWVSAISGSGGTTYYADSVKGRFTISRDNSKNTLYLQMNSLRAEDTAVYYCARVGPGRSIAARQGFKRRNNWFDPWGQGTLVTVSS
VL: B2 VL with T25A, S28T, N30S, T31N, L33V, G53S, S56A, A91G, G93S, F96L
B5: NRP1-216 (antibody, IgG2, V domains shown)
VH: EVQLLESGGGLVQPGGSLRLSCAASGFSFRNYAMSWVRQAPGKGLEWVSTVSGSGSSTYYADSVKGRFTISRDNSKNTLYLQMNSLRAEDTAVYYCARGRRGMPAPDTVRKMAKSHLYFDSWGQGTLVTVSS
VL: B2 VL with T25A, N30S, T31N, N34S, G53S, H55S, S56G, A91T, G93T, F96Y
B6: NRP1-224 (antibody, IgG2, V domains shown)
VH: B4 VH with T30G, T31S, G33A, S35A, A50G, S52T, G53A, T57S
VL: B2 VL with T25A, S28N, N30G, T31R, G53T, A91S, Y92H, G93S, T94N
B7: NRP1-220 (antibody, IgG2, V domains shown)
VH: EVQLLESGGGLVQPGGSLRLSCAASGFTFRTYDMGWVRQAPGKGLEWVSAVSGSGGTTYYADSVKGRFTISRDNSKNTLYLQMNSLRAEDTAVYYCARETRRVLRRQWRRSYHSYGLDVWGQGTLVTVSS
VL: B2 VL with T25A, N30S, T31N, Y32K, G53T, H55Q, S56R, A91S, G93K, F96L
B8: NRP1-219 (antibody, IgG2, V domains shown)
VH: EVQLLESGGGLVQPGGSLRLSCAASGFPFSSYALSWVRQAPGKGLEWVSAITGSGGNTFYADSVKGRFTISRDNSKNTLYLQMNSLRAEDTAVYYCARGGQSGRPRVRGARRLDYYGMDVWGQGTLVTVSS
VL: DIQMTQSPSSLSASVGDRVTITCRASQSISKSLNWYQQKPGKAPKLLIYGASKLQRGVPSRFSGSGSGTDFTLTISSLQPEDFATYYCQQGYSAPLTFGGGTKVEIK
B9: NRP1-225 (antibody, IgG2, V domains shown)
VH: EVQLLESGGGLVQPGGSLRLSCAASGFMFSRYAMSWVRQAPGKGLEWVSAISGSGDTTHYADSVKGRFTISRDNSKNTLYLQMNSLRAEDTAVYYCARGGRGLRLQVPIVRHARKGKDYYMDVWGQGTLVTVSS
VL: B8 VL with S30G, K31S, S32H, N34S, G50R, K53S, R56T, Q89L, G91T, A94V
B10: NRP1-16 (VHH)
VHH: EVQLVESGGGLVQPGGSLRLSCAASGRTFSRYVMGWFRQAPGKEREWVATSGTGYGATYADSVKGRFTISADNSKNTAYLQMNSLKPEDTAVYYCARGWLRTGWSIWGQGTLVTVSS

Target: T1, neuropilin-1 (NRP1) on HEK293 cells overexpressing NRP1 (UniProt O14786 22-923, limits assumed)
T1 construct: whole, on cells
Test: flow cytometry, HEK293-NRP1 vs HEK293

First: B1
Second: B2
The “100 nM FACS (MFI Ratio)” value of the first is higher: 12.8 for the first, 6.2 for the second.

Compared with B3, B4 is lower in “100 nM FACS (MFI Ratio)” value: 2.8 for the first, 0.6 for the second.

First: B5
Second: B6
The “100 nM FACS (MFI Ratio)” value of the first is higher: 3.6 for the first, 1 for the second.

Going from B7 to B8, the “100 nM FACS (MFI Ratio)” value falls from 2.3 to 1.2.

First: B9
Second: B10
The “100 nM FACS (MFI Ratio)” value of the first is lower: 1.1 for the first, 15.9 for the second.

Source: US20230265198A1 (TWIST BIOSCIENCE, published 2023)
